From patent publication US20120328625A1 (AstraZeneca / MedImmune, published 2012)
Changes are numbered by the printed parent chain. Each block holds one binder with its values, some of them ahead of it.

Experiments:
[1] = target: T1, full length human Shh expressed on the cell surface (human, UniProt Q15465 24-462); assay: cell-based or functional assay
[2] = target: T2, Shh-N in conditioned medium (human, UniProt Q15465 24-197, N-terminal palmitoyl modification; lacks the C-terminal cholesterol moiety); assay: cell-based or functional assay
biotinylated human Shh = target: T3, biotinylated human Shh (human, UniProt Q15465 24-197, limits assumed, biotinylated); assay: ELISA, hybridoma supernatant on neutravidin-captured biotin-Shh
T3 construct: also called biotin-Shh; immobilized biotinylated Shh
Experimental: After blocking with 1% milk in PBS, 40 μl of 500 ng/ml biotinylated Shh in 1×PBS, 1% milk (wt/vol) was added to each well and incubated for 1 hr at RT. Hybridoma supernatants (10 μl/well) were added to 40 μl of 1% milk, 0.05% Tween-20 in PBS per well and incubated 1 hr at RT. Following washing and incubation with secondary antibody (100 ng/ml goat-anti-human IgG Fc HRP), wells were developed with TMB substrate and subsequently quenched with 1 N HCl.

[3] = target: T1, full length human Shh expressed on the …; assay: flow cytometry, transfected against parental 293T cells
Experimental: (§1) Finally, binding of antibody in exhaust hybridoma supernatants to native Shh was assessed using flow cytometry. […] Transfected or parental cells were seeded into the plates with V-bottom wells (50,000 cells/well). Exhaust supernatants (50 μl of a 1:10 dilution) were added to each well and incubated at 4° C. for 1 hr. […] It was added to a concentration of 2 μg/ml in a volume of 50 μl. Cells were washed and 50 μl of a 2 μg/ml solution of secondary antibody (Cy5-labeled goat-anti-human IgG or Cy5-labeled goat-anti-rabbit IgG) were added to each well. 7AAD was added to a concentration of 5 μg/ml and the mixture was incubated for 30 min at RT. The mean fluorescence for each sample was then determined using flow cytometry.

[4] = target: T1, full length human Shh expressed on the …; assay: cell-based or functional assay; remark: listed apart in the source
[5] = target: T2, Shh-N in conditioned medium; assay: cell-based or functional assay; remark: listed apart in the source
[6] = target: T2, Shh-N in conditioned medium; assay: cell-based or functional assay; remark: listed apart in the source
[7] = target: T1, full length human Shh expressed on the …; assay: flow cytometry, exhaust hybridoma supernatant 1:10, 293T cells transiently expressing human Shh
Experimental: as §1

[8] = target: T1, full length human Shh expressed on the …; assay: FMAT, hybridoma supernatant on 293T cells transiently expressing human Shh
Experimental: Cells were maintained at 1×10⁶ cells/ml overnight at 37° C., 5% CO₂. […] Supernatants were added to each well (10 μl/well) and incubated 1.5 hrs at RT. […] Plates were read on the FMAT 8100 HTS system from Applied Biosystems. Total signal (FL1×count) is defined as the number of positive cells in a well (count) multiplied by the average fluorescence intensity of the positive cells (FL1).

B1: 1A12 (antibody, V domains shown)
VH: QVYLVESGGGVVQPGRSLRLSCAASGFTFSSYGMHWVRQAPGKGLEWVAVIWYDGSNEYYADSVKGRFTISRDNSKNTLYLQMNSLRAEDTAVYYCARDLYYYGSGSPFDYWGQGTLVTVSS
VL: EIVMTQSPATLSVSPGERATLSCRASQSVSSNLAWYQQKPGQAPRLLIFGVSIRATGIPARFSGSGSGTEFTLTISSLQSEDFAVYYCQQYNDWPRPGFGGGTKVEIK
notes: fully human XenoMouse hybridoma antibody; tested as hybridoma supernatant and as purified antibody; also called MAb 1A12
% Inh of Gli1 reporter, Co-Culture N = 1 [1]: 40% | % Inh of Gli1 reporter, Co-Culture N = 2 [1]: 32% | % Inh of Gli1 reporter, CM N = 1 [2]: 25% | % Inh of Gli1 reporter, CM N = 3 [2]: 43% | OD450 (biotinylated human Shh): 4.09 OD450 | ratio [3]: 78.1 | % Inhibition of Gli1 reporter, Co-Culture N = 1, 20 µg/ml [4]: 58% | % Inhibition of Gli1 reporter, Co-Culture N = 2, 20 µg/ml [4]: 59% | % Inhibition of Gli1 reporter, Co-Culture N = 3, 20 µg/ml [4]: 22% | % Inhibition of Gli1 reporter, Conditioned Media N = 1, 20 µg/ml [5]: 18% | % Inhibition of Gli1 reporter, Conditioned Media N = 2, 20 µg/ml [5]: 57% | IC50, inhibition of osteoblast differentiation (alkaline phosphatase) of C3H10T1/2 cells [6]: 4.6 nM | X Geo Mean (Transients) [7]: 290 | FL1 X COUNT [8]: 696000

B2: 1G12 (antibody, V domains shown)
VH: B1 VH with Y3Q, S31T, E58K, K65N, A88G
VL: B1 VL with A19V, F49Y, N92D, D93N
notes: fully human XenoMouse hybridoma antibody; tested as hybridoma supernatant and as purified antibody; also called MAb 1G12
% Inh of Gli1 reporter, Co-Culture N = 1 [1]: 30% | % Inh of Gli1 reporter, Co-Culture N = 2 [1]: 35% | % Inh of Gli1 reporter, CM N = 1 [2]: 32% | % Inh of Gli1 reporter, CM N = 3 [2]: 40% | OD450 (biotinylated human Shh): 2.49 OD450 | ratio [3]: 2.2 | % Inhibition of Gli1 reporter, Co-Culture N = 1, 20 µg/ml [4]: 35% | % Inhibition of Gli1 reporter, Co-Culture N = 2, 20 µg/ml [4]: 43% | % Inhibition of Gli1 reporter, Co-Culture N = 3, 20 µg/ml [4]: 28% | % Inhibition of Gli1 reporter, Conditioned Media N = 1, 20 µg/ml [5]: 23% | % Inhibition of Gli1 reporter, Conditioned Media N = 2, 20 µg/ml [5]: 44% | IC50, inhibition of osteoblast differentiation (alkaline phosphatase) of C3H10T1/2 cells [6]: 7.1 nM | X Geo Mean (Transients) [7]: 8.3 | FL1 X COUNT [8]: 327000

B6: 1A5 (antibody, V domains shown)
VH: EVQVVESGGDLIQPGGSLRLSCVASGFTVSSNYMNWVRQAPGKGLEWVSVIYSGGNTYYADSVKGRFTISRDNSKNTLYLQMNSLRAEDTAVYYCARDSSVVVGLGYFDLWGRGTLVTVSS
VL: SYELTQPPSVSVSPGQTASITCSGDKLGANYASWYQQKPGQSPVLVIFQDTKRPSGIPERFSGSNSGNTATLTISGTQAMDEADYYCQAWDFSTVIFGGGTKLTVL
notes: fully human XenoMouse hybridoma antibody; tested as hybridoma supernatant and as purified antibody; also called MAb 1A5
% Inh of Gli1 reporter, Co-Culture N = 1 [1]: 20% | % Inh of Gli1 reporter, Co-Culture N = 2 [1]: 27% | % Inh of Gli1 reporter, CM N = 1 [2]: 73% | % Inh of Gli1 reporter, CM N = 3 [2]: 62% | OD450 (biotinylated human Shh): 6 OD450 | ratio [3]: 70.5 | % Inhibition of Gli1 reporter, Co-Culture N = 1, 20 µg/ml [4]: 25% | % Inhibition of Gli1 reporter, Co-Culture N = 2, 20 µg/ml [4]: 20% | % Inhibition of Gli1 reporter, Co-Culture N = 3, 20 µg/ml [4]: 20% | % Inhibition of Gli1 reporter, Conditioned Media N = 1, 20 µg/ml [5]: 35% | % Inhibition of Gli1 reporter, Conditioned Media N = 2, 20 µg/ml [5]: 34% | IC50, inhibition of osteoblast differentiation (alkaline phosphatase) of C3H10T1/2 cells [6]: 4.8 nM | X Geo Mean (Transients) [7]: 265 | FL1 X COUNT [8]: 304000

B7: 1C8 (antibody, V domains shown)
VH: B6 VH with V4L, D10G, V23A, A24V, Y33C, N56K, Y58A, Y79C, V101M
VL: B6 VL with Q16L, A29Y, N30K, F48Y, T51I, F92S, I96V
notes: fully human XenoMouse hybridoma antibody; tested as hybridoma supernatant and as purified antibody; also called MAb 1C8
% Inh of Gli1 reporter, Co-Culture N = 1 [1]: 32% | % Inh of Gli1 reporter, Co-Culture N = 2 [1]: 24% | % Inh of Gli1 reporter, CM N = 1 [2]: 47% | % Inh of Gli1 reporter, CM N = 3 [2]: 43% | ratio [3]: 33.3 | % Inhibition of Gli1 reporter, Co-Culture N = 1, 20 µg/ml [4]: 26% | % Inhibition of Gli1 reporter, Co-Culture N = 2, 20 µg/ml [4]: 10% | % Inhibition of Gli1 reporter, Co-Culture N = 3, 20 µg/ml [4]: 23% | % Inhibition of Gli1 reporter, Conditioned Media N = 1, 20 µg/ml [5]: -1% | % Inhibition of Gli1 reporter, Conditioned Media N = 2, 20 µg/ml [5]: 8% | X Geo Mean (Transients) [7]: 118 | FL1 X COUNT [8]: 319000

B8: 1F4 (antibody, V domains shown)
VH: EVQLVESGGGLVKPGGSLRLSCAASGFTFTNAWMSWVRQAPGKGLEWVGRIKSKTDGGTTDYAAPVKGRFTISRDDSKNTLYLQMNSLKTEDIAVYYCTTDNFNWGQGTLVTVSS
VL: EIVMTQSPATLSVSPGERATLSCRASQSISSNLAWYQQKPGQAPRLLIYGASTRATGIPARFSGSGSGTEFTLTISSLQSEDFAVYFCQQYHSWWTFGQGTKVEIQ
notes: fully human XenoMouse hybridoma antibody; tested as hybridoma supernatant and as purified antibody; also called MAb 1F4
% Inh of Gli1 reporter, Co-Culture N = 1 [1]: 31% | % Inh of Gli1 reporter, Co-Culture N = 2 [1]: 47% | % Inh of Gli1 reporter, CM N = 1 [2]: 21% | % Inh of Gli1 reporter, CM N = 3 [2]: 9% | OD450 (biotinylated human Shh): 6 OD450 | ratio [3]: 63.8 | % Inhibition of Gli1 reporter, Co-Culture N = 1, 20 µg/ml [4]: 31% | % Inhibition of Gli1 reporter, Co-Culture N = 2, 20 µg/ml [4]: 18% | % Inhibition of Gli1 reporter, Co-Culture N = 3, 20 µg/ml [4]: 28% | % Inhibition of Gli1 reporter, Conditioned Media N = 1, 20 µg/ml [5]: 2% | % Inhibition of Gli1 reporter, Conditioned Media N = 2, 20 µg/ml [5]: 16% | X Geo Mean (Transients) [7]: 219 | FL1 X COUNT [8]: 110000

The remaining lines, values ahead:

% Inh of Gli1 reporter, Co-Culture N = 1 [1]: 37% | % Inh of Gli1 reporter, Co-Culture N = 2 [1]: 23% | % Inh of Gli1 reporter, CM N = 1 [2]: 43% | % Inh of Gli1 reporter, CM N = 3 [2]: 28% | OD450 (biotinylated human Shh): 3.46 OD450 | ratio [3]: 40.9 | % Inhibition of Gli1 reporter, Co-Culture N = 1, 20 µg/ml [4]: 47% | % Inhibition of Gli1 reporter, Co-Culture N = 2, 20 µg/ml [4]: 68% | % Inhibition of Gli1 reporter, Co-Culture N = 3, 20 µg/ml [4]: 4% | % Inhibition of Gli1 reporter, Conditioned Media N = 1, 20 µg/ml [5]: 48% | % Inhibition of Gli1 reporter, Conditioned Media N = 2, 20 µg/ml [5]: 24% | IC50, inhibition of osteoblast differentiation (alkaline phosphatase) of C3H10T1/2 cells [6]: 4.4 nM | X Geo Mean (Transients) [7]: 150 | FL1 X COUNT [8]: 370000
B3: 1H10 (antibody, V domains shown)
VH: B1 VH with Y3Q, Y53N, Y111D
VL: B1 VL with A9G, S30G, I58V
notes: fully human XenoMouse hybridoma antibody; tested as hybridoma supernatant and as purified antibody; also called MAb 1H10

% Inh of Gli1 reporter, Co-Culture N = 1 [1]: 31% | % Inh of Gli1 reporter, Co-Culture N = 2 [1]: 34% | % Inh of Gli1 reporter, CM N = 1 [2]: 46% | % Inh of Gli1 reporter, CM N = 3 [2]: 22% | OD450 (biotinylated human Shh): 5.14 OD450 | ratio [3]: 50.2 | % Inhibition of Gli1 reporter, Co-Culture N = 1, 20 µg/ml [4]: 44% | % Inhibition of Gli1 reporter, Co-Culture N = 2, 20 µg/ml [4]: 76% | % Inhibition of Gli1 reporter, Co-Culture N = 3, 20 µg/ml [4]: 22% | % Inhibition of Gli1 reporter, Conditioned Media N = 1, 20 µg/ml [5]: 73% | % Inhibition of Gli1 reporter, Conditioned Media N = 2, 20 µg/ml [5]: 43% | IC50, inhibition of osteoblast differentiation (alkaline phosphatase) of C3H10T1/2 cells [6]: 3.3 nM | X Geo Mean (Transients) [7]: 196 | FL1 X COUNT [8]: 625000
B4: 4B6 (antibody, V domains shown)
VH: B1 VH with Y3Q, S31T
VL: B1 VL with V51I, K104R
notes: fully human XenoMouse hybridoma antibody; tested as hybridoma supernatant and as purified antibody; also called MAb 4B6

% Inh of Gli1 reporter, Co-Culture N = 1 [1]: 48% | % Inh of Gli1 reporter, Co-Culture N = 2 [1]: 19% | % Inh of Gli1 reporter, CM N = 1 [2]: 38% | % Inh of Gli1 reporter, CM N = 3 [2]: 40% | OD450 (biotinylated human Shh): 3.73 OD450 | ratio [3]: 9.1 | % Inhibition of Gli1 reporter, Co-Culture N = 1, 20 µg/ml [4]: 8% | % Inhibition of Gli1 reporter, Co-Culture N = 2, 20 µg/ml [4]: 15% | % Inhibition of Gli1 reporter, Co-Culture N = 3, 20 µg/ml [4]: 13% | % Inhibition of Gli1 reporter, Conditioned Media N = 1, 20 µg/ml [5]: -5% | % Inhibition of Gli1 reporter, Conditioned Media N = 2, 20 µg/ml [5]: -5% | X Geo Mean (Transients) [7]: 34.4 | FL1 X COUNT [8]: 1.11e+06
B5: 1H12 (antibody, V domains shown)
VH: QVQLVQSGAEVKKPGASVKVSCKASGYTFTGYYMHWVRQAPGQGLEWVGWFNPNSGGTNCAQKFQGRVTMTRDTSISTAYMELSRLRSDDTAVYYCAREAVESYYYGLDVWGQGTTVTVSS
VL: QSVVTQPPSASGTPGQRITISCSGSSSNIGSNYVYWYHQLPGSAPNLLIYRNNQRPSGVPDRFSGSKSGTSASLAISGLRSEDEADYFCAVWDDSLRGVVFGGGTKLTVL
notes: fully human XenoMouse hybridoma antibody; tested as hybridoma supernatant and as purified antibody; also called MAb 1H12

% Inh of Gli1 reporter, Co-Culture N = 1 [1]: 38% | % Inh of Gli1 reporter, Co-Culture N = 2 [1]: 42% | % Inh of Gli1 reporter, CM N = 1 [2]: 52% | % Inh of Gli1 reporter, CM N = 3 [2]: 42% | OD450 (biotinylated human Shh): 4.04 OD450 | ratio [3]: 44.1 | % Inhibition of Gli1 reporter, Co-Culture N = 1, 20 µg/ml [4]: 32% | % Inhibition of Gli1 reporter, Co-Culture N = 2, 20 µg/ml [4]: 25% | % Inhibition of Gli1 reporter, Co-Culture N = 3, 20 µg/ml [4]: 36% | % Inhibition of Gli1 reporter, Conditioned Media N = 1, 20 µg/ml [5]: 34% | % Inhibition of Gli1 reporter, Conditioned Media N = 2, 20 µg/ml [5]: 48% | IC50, inhibition of osteoblast differentiation (alkaline phosphatase) of C3H10T1/2 cells [6]: 5.7 nM | X Geo Mean (Transients) [7]: 165 | FL1 X COUNT [8]: 89600
B9: 1H8 (antibody, V domains shown)
VH: QVQLQESGPGLVKPSETLSLTCTVSGGSISSYYWTWIRQPPGKGLEWIGYIYYSGSTNYNPSLKSRVTISVDTSKNQFSLKLSSVTAADTAVYYCARDRLLYGMDVWGQGTTVTVSS
VL: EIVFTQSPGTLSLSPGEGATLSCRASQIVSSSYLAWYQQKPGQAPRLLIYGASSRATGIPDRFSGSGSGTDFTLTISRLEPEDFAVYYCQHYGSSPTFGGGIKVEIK
notes: fully human XenoMouse hybridoma antibody; also called MAb 1H8
